Test results as given in the supplement of paper PMC10266784.

B1: library; numbered along this chain (parent)
chain: MAAAAAAAAEQQSSNGPVKKSMREKAVERRSVNKEHNSNFKAGYIPIDEDRLHKTGLRGRKGNLAICVIILLFILAVINLIITLVIWAVIRIGPNGCDSMEFHESGLLRFKQVSDMGVIHPLYKSTVGGRRNENLVITGNNQPIVFQQGTTKLSVENNKTSITSDIGMQFFDPRTQNILFSTDYETHEFHLPSGVKSLNVQKASTERITSNATSDLNIKVDGRAIVRGNEGVFIMGKTIEFHMGGNMELKAENSIILNGSVMVSTTRLPSSSSGDQLGSGDWVRYKLCMCADGTLFKVQVTSQNMGCQISDNPCGNTH

Variants of: B1
Test: SGCB cell-surface expression functional score (HA stain, bin4 vs bin1, normalised to synonymous) (log10 ratio); higher = more cell-surface SGCB (functional)
Procedure, shortened: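 Codon-saturation libraries of HA-tagged, YFP-fused human beta-sarcoglycan were lentivirally transduced at MOI <0.1 into HEK293 cells stably expressing alpha-, gamma- and delta-sarcoglycan. YFP-positive cells were sorted after 72 hours, grown 5–7 days, stained on ice with Alexa Fluor 647 anti-HA, fixed, sorted into four 5% intensity bins and amplicon-sequenced. The functional score is the log ratio of highest-bin to lowest-bin variant frequency, taken as the median over codons and duplicate transductions. Synonymous variants were scaled per section to mean 0, SD 0.5.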

SGCB cell-surface expression functional score (log10) of substitutions, site by site:
S254: K 0.05 | N 0.66 | C 0.55 | A 0.25 | V 0.02 | I 0.12 | H 0.41 | F 0.96 | E 1.37 | P -0.77 | Q 0.92 | T 0.67 | M 0.79 | D -0.152 | L 0.74 | G 0.08 | R 0.12
N253: K 0.46 | S 0.59 | Y 0.45 | E 0.76 | Q 1.07 | A 0.49 | R 0.29 | T 0.39 | I 0 | V 0.9 | H 0.8 | W 0.29 | P -0.52 | D 0.58 | M -0.117 | C 0.55 | L 0.96 | F 0.83 | G 0.43
E240: F 0.84 | V 0.99 | L 0.37 | H 0.77 | T 1 | P -0.9 | Y 0.83 | G 0.76 | A 0.93 | D 0.58 | I 0.23 | R 0.44 | Q 1 | K 0.46 | W 0.422 | S 0.98 | M 1.09 | N 0.97 | C 0.37
A251: F -0.98 | L -1.06 | D -0.84 | I -0.87 | C 0.59 | K -1.77 | T 0.52 | V 0.46 | S 0.32 | M 0 | W -1.85 | G 0.05 | R -1.16 | Q -2.02 | P 0.04 | E -1.22 | N 0.23 | H 0.44 | Y -1.33
L249: N -0.2 | W 0.63 | T 0 | P -0.41 | F 0.71 | S 0.16 | Q -0.07 | Y 0.23 | R -0.27 | E -0.69 | K -1.29 | C 0.2 | M -0.1 | V 0.75 | D -1.06 | A 0.55 | I 0.85 | H -1.14 | G 0.21
F241: D -0.57 | Y -0.82 | Q -1.74 | A 0.14 | T -0.91 | V -0.37 | G -0.98 | L 0.35 | E 0.03 | W 1.2 | R -1.19 | K -1.17 | N -0.57 | M 0.82 | H -2.08 | I 0.2 | P -0.89 | C 0.62 | S -1.23
E248: I 0.78 | D 0.58 | A 0.29 | L 0.48 | Q -0.13 | P 0.43 | F 0.95 | G 0.62 | T 0.54 | R 0.67 | M 0 | C -0.97 | H 0.87 | V 0.52 | S 0.4 | K 0.73 | Y 0.41 | W 0.116 | N 0.44
M247: C 0.91 | D -1.1 | H 0.26 | Y 1.22 | I 0.34 | V 0.47 | A 0.65 | P -1.08 | E -0.44 | W -1.52 | N -0.35 | S 0.26 | R -0.83 | F 1.03 | L 0.8 | G 0.38 | T -0.51 | K -1.56 | Q -0.04
N246: Y 0.19 | E -0.206 | H 0.84 | W -0.217 | F -1.49 | K -0.01 | V 0.39 | G 0.45 | L 0.49 | Q 0.45 | I 0.32 | R 0.2 | P 0.63 | C -0.02 | S -0.19 | T 0.94 | M 0.42 | A 0.82 | D 0.51
K237: T 0.58 | N 0.32 | S 0.2 | Q -0.79 | I 0.24 | R 0.73 | L 0.6 | W 0.453 | V 0.29 | P 0.32 | H -0.04 | Y 0.48 | M 0.8
I239: R -1.04 | Y -1.52 | Q -1.16 | M 0.83 | C 0.46 | D -1.13 | G -0.41 | P -1.08 | W -0.02 | F -0.45 | S -1.1 | A 0.09 | N -1.44 | T 0.15 | K -1.38 | E 0 | H -0.15 | V 0.12 | L 0.49
H242: K 1.04 | W 0.6 | M 0.2 | Y 0.47 | N 0.39 | F 0.89 | P -0.67 | T 0.66 | S 0.93 | V 0.71 | A 0.4 | R 0.39 | Q 0.68 | C 1 | E 0.36 | G 0.87 | D 0.83 | I 0.92 | L 0.7
M243: C 0.71 | K -0.64 | D -0.38 | F 1.18 | W -0.253 | V 0.49 | Y 0.13 | A 0.83 | H 0.52 | Q 0.88 | T 0.83 | E 0.01 | I 0.18 | L 0.43 | P 0.21 | N 1.08 | R -0.97 | G 0.64 | S 0.81
G244: D 0.99 | E 0.47 | C 0.21 | L 0.86 | S 0.77 | H 0.75 | I -0.24 | T 0.66 | K 0.23 | F 1 | Y -0.22 | P 0.1 | Q 0.86 | W 0.55 | R 0.41 | A 0.67 | M 1.17 | N 0.77 | V 0.12
G245: A 0.6 | Q 0.99 | L 0.83 | K 0.91 | D 0.77 | N 0.59 | V -0.07 | Y 1.09 | W 0.92 | F -0.16 | I 0.57 | R 0.49 | E 1.16 | P 0.4 | M 1.44 | T 0.57 | C 0.61 | S 0.78 | H 0.52
T238: M 0.93 | I 0.62 | D 0.72 | K 0.3 | Y -0.01 | R 0.94 | W -0.07 | S 0.64 | F 0.86 | P -0.64 | C 0.64 | H 0.24 | V 0.95 | L 0.67 | E 0.87 | A 0.6 | N 0.67 | Q 0.63 | G 0.71
K250: S 0.33 | A 0.91 | Y 1.05 | H 0.87 | L 0.54 | G 0.55 | I 1 | T 0.83 | P -0.39 | R 0.59 | F 1.23 | Q 0.65 | M 0.98 | E 0.06 | D 0.83 | N 0.48 | W 0.02 | C 0.5 | V 0.37
E252: G 0.39 | C 0.5 | T 0.88 | Y 1.05 | N 1.08 | K 0.57 | I 1.01 | P 0.32 | L 0.88 | V 0.88 | S 0.51 | W 0.117 | A 0.53 | H 1.12 | R 0.34 | F 1.22 | D -0.26 | Q 0.64 | M 0.8
